Results from patent US20230287376, “IMMOBILIZED ENZYME COMPOSITIONS AND METHODS” (New England Biolabs, Inc., published 2023).

How the values were obtained:
HS-T4 DNA ligase = target: T1, HS-T4 DNA ligase (Enterobacteria phage T4, UniProt P00970 P00970:1-487); assay: ligation gel assay to SEQ 3 adaptor; agarose-immobilized form retains activity after 60-100 C, soluble form does not; settings: tags: SNAP-tag fusion, soluble or immobilized on BG-agarose
T1 chain: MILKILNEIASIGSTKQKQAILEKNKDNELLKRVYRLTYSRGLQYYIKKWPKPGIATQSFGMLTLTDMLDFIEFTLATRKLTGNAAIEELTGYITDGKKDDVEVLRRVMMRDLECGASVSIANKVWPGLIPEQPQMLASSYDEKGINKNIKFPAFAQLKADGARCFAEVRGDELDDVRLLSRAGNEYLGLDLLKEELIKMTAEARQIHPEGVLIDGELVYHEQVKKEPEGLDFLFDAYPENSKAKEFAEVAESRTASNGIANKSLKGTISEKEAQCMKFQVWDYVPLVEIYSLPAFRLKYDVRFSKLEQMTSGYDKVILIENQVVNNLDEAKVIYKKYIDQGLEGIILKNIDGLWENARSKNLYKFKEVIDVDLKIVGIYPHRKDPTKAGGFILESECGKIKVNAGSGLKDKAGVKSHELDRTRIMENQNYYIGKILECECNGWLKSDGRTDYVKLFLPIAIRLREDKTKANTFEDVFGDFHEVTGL
Method: (§1) A FAM-labeled DNA duplex was formed by annealing synthetic oligomer, Gene32FAM-fw3′A, /56-FAMN/CA TGGTGATTACGATTCTTGCCCAGTATGTCAATACATCAGTAAAAATA (SEQ ID NO:1) and Gene32-rv5′p, /5Phos/AT TTTTACTGATGTATTGACATACTGGGCAAGAATCGTAATCAC CATG (SEQ ID NO:2).
(§2) For heat treatment, an aliquot of 15.83 μL from an enzyme master mixture was incubated at 4, 40, 60, 80, 90, 95 or 100° C. for 10 min, followed by addition of 9.17 μL of the DNA substrate mixture. All the ligation reactions were carried out at 4° C. overnight in a shaker. The samples were analyzed by electrophoresis on a 12% Tris-Glycine PAGE (Novex/Invitrogen) in 1×TAE Buffer for 2.5 hours at 25 mA (current). […] In contrast, HS-T4 DNA Ligase immobilized to BG-Agarose beads retained enzymatic activity after treatment in the same range of elevated temperature tested.

T4 DNA ligase = target: T2, T4 DNA ligase (Enterobacteria phage T4, UniProt P00970 P00970:1-487); assay: ligation gel assay to SEQ 3 adaptor, 4 C; no activity after 60-100 C pretreatment; settings: tags: untagged, NEB M0202
T2 sequence: T1 chain
Method: as §1, §2

B1: Gene32 FAM duplex + TA adaptor (dsDNA)
DNA 1: CATGGTGATTACGATTCTTGCCCAGTATGTCAATACATCAGTAAAAATA
DNA 2: ATTTTTACTGATGTATTGACATACTGGGCAAGAATCGTAATCACCATG
modifications: 5'-phosphate on SEQ 2
HS-T4 DNA ligase
  binding result: binds
T4 DNA ligase
  binding result: binds
